Measured values published in patent US20220064330A1.

How the values were obtained:
complement C3 = complement C3 (UniProt P01024)

Chain of complement C3, P01024 (P01024 whole entry, looked up): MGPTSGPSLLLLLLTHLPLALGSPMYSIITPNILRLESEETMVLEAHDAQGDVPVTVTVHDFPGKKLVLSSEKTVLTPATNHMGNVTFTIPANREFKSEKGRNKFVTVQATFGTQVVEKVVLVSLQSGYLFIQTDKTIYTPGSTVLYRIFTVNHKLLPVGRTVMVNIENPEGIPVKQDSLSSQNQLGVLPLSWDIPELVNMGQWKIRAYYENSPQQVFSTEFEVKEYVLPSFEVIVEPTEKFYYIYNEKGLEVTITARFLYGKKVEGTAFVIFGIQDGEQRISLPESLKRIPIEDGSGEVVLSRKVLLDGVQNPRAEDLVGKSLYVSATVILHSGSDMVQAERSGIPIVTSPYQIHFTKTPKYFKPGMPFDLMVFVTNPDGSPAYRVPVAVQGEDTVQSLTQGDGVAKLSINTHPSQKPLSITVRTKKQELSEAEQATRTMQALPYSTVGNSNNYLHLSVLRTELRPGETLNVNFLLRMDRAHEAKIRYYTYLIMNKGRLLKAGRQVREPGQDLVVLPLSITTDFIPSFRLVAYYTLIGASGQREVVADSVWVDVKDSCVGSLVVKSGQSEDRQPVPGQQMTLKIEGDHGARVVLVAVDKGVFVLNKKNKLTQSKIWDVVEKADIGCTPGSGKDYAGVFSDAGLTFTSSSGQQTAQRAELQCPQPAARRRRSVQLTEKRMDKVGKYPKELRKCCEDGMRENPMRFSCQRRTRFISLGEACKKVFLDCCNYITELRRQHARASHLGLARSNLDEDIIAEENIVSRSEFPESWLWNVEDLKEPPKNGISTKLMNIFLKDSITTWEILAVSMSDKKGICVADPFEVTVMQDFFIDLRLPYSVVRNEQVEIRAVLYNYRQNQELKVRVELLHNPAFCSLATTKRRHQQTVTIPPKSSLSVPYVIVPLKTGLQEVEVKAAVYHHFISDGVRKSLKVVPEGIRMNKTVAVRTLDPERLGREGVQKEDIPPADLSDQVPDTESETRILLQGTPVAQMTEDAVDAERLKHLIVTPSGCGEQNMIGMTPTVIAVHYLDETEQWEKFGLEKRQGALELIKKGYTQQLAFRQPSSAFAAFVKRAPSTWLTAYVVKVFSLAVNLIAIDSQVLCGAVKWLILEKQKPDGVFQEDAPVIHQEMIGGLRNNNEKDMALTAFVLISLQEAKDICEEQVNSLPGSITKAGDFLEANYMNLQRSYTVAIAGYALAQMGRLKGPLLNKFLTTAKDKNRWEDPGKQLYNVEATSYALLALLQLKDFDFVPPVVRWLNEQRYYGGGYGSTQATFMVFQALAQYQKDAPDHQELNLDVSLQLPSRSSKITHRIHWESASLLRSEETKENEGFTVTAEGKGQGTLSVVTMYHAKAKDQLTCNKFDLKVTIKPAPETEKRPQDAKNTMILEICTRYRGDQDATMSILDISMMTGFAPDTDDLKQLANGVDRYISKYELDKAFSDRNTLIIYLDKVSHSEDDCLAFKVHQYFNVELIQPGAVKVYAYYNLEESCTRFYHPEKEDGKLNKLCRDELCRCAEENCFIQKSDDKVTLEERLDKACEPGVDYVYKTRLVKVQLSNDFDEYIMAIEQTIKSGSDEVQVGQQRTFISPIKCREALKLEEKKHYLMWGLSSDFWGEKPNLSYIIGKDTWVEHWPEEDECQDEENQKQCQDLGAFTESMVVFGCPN

Molecule | cleavage of the C3 a-chain to the a' chain (Western blot) (complement C3) | cleavage of the C3 a-chain to the a' chain (Western blot) (complement C3, P01024)
human FXIa (activated human clotting factor XI) | can cleave C3 in vitro in the absence of any complement proteases | –
human FXa (activated human clotting factor X) | can cleave C3 in vitro in the absence of any complement proteases | –
bovine FXa (activated bovine clotting factor X) (protein) ANSFLEEVKQGNLERECLEEACSLEEAREVFEDAEQTDEFWSKYKDGDQCEGHPCLNQGHCKDGIGDYTCTCAEGFEGKNCEFSTREICSLDNGGCDQFCREERSEVRCSCAHGYVLGDDSKSCVSTERFPCGKFTQGRSRRWAIHTSEDALDASELEHYDPADLSPTESSLDLLGLNRTEPSAGEDGSQVVRIVGGRDCAEGECPWQALLVNEENEGFCGGTILNEFYVLTAAHCLHQAKRFTVRVGDRNTEQEEGNEMAHEVEMTVKHSRFVKETYDFDIAVLRLKTPIRFRRNVAPACLPEKDWAEATLMTQKTGIVSGFGRTHEKGRLSSTLKMLEVPYVDRSTCKLSSSFTITPNMFCAGYDTQPEDACQGDSGGPHVTRFKDTYFVTGIVSWGEGCARKGKFGVYTKVSNFLKWIDKIMKARAGAAGSRGHSEAPATWTVPPPLPL | – | can cleave C3 in vitro in the absence of any complement proteases
